Reference: article PMC8080530, “Glucocorticoid receptor Thr524 phosphorylation by MINK1 induces interactions with 14-3-3 protein regulators” (The Journal of Biological Chemistry, 2021)
Where two headings read alike, the source gives them in different places. Non-standard residues stand in square brackets, D forms with d. Residues, ends and D or L forms follow the SMILES beside them. Primed or numbered codes have the meaning given here. No end group written: not given here. *: point of attachment. FITC′ = fluorescein isothiocyanate tag added on resin (method C); FITC = O=C1OC2(c3ccc(O)cc3Oc3cc(O)ccc32)c2ccc(NC(=S)*)cc21; pT = C[C@@H](OP(=O)(O)O)[C@H](N)C(=O)O; pS = N[C@@H](COP(=O)(O)O)C(=O)O

What was measured:
[1] = test system: GR–14-3-3 interaction in HEK293 and U2OS cells; assay: Co-IP and far-Western blotting overlay of GR with 14-3-3 after cell stimulation; assay type: cell-based; conditions: HEK293 and U2OS cells transfected with WT GR, overnight starvation; forskolin 20 µM for 30 min, calyculin A 50 nM for 10 min
Protocol: The interaction between the full-length GR and 14-3-3 was investigated in a cellular system to validate the relevance of the peptide studies.
The HEK293 and U2OS cell lines (American Type Culture Collection) were cultured in Dulbecco's modified Eagle's medium, supplemented with 10% fetal bovine serum and 1% penicillin-streptomycin (10,000 U/ml) at 37 °C in a 5% CO2 environment. For the Co-IP assay, 3 × 10^6 cells were seeded in a 15-cm cell culture dish. At 60 to 70% confluence, the HEK293 cells were transiently transfected with a mixture of 6-μg GFP-MINK1 or GFP-GR DNA and 24-μl lipofectamine 2000 in 2-ml Opti-MEM for 24 h. […]
(§1) Cells were collected and lysed in radioimmunoprecipitation assay buffer containing 50-mM Tris-HCl, pH 8, 150-mM NaCl, 1-mM EDTA, 0.1% SDS, 1% Na deoxycholate, and 1% NP-40 supplemented with a protease inhibitor cocktail. After lysis, the concentration of protein was quantified by the Bradford test. […]
(§2) Eluted proteins were resolved on a NuPAGE 4 to 12% Bis-Tris Protein Gels, 1.0 mm. […] After washing with TBST, the blots were detected using an Odyssey CLx Imaging system (LI-COR). […]
Samples containing proteins from the Co-IP assay or GR LBD in vitro phosphorylated were loaded on a NuPAGE 4 to 12% Bis-Tris Protein Gels, 1.0 mm, and separated. […] After washing with TBST, the blots were detected using an Odyssey CLx Imaging system (LI-COR). […]

[2] = test system: MINK1–14-3-3 interaction in HEK293 cells; assay: Co-IP and far-Western blotting overlay of MINK1 with 14-3-3 after cell stimulation; assay type: cell-based; conditions: HEK293 cells transfected with GFP-MINK1; forskolin 20 µM for 30 min, calyculin A 50 nM for 10 min
Protocol: The HEK293 and U2OS cell lines (American Type Culture Collection) were cultured in Dulbecco's modified Eagle's medium, supplemented with 10% fetal bovine serum and 1% penicillin-streptomycin (10,000 U/ml) at 37 °C in a 5% CO2 environment. For the Co-IP assay, 3 × 10^6 cells were seeded in a 15-cm cell culture dish. At 60 to 70% confluence, the HEK293 cells were transiently transfected with a mixture of 6-μg GFP-MINK1 or GFP-GR DNA and 24-μl lipofectamine 2000 in 2-ml Opti-MEM for 24 h. At 60 to 70% confluence, the U2OS cells were transiently transfected with a mixture of 8-μg GFP-MINK1 or GFP-GR and/or FLAG-MINK1 DNA and 32-μl X-tremeGENE 9 DNA in 2 ml Opti-MEM for 24 h. Stimulation with forskolin, H89, IGF-1, and PI303 was preceded by a cell starvation step where the cells were incubated with DMEM without supplements overnight. […]
as §1, §2

14-3-3ζ = target: T1, 14-3-3ζ (Homo sapiens, UniProt P63104); assay: FP assay with GR phosphorylated peptides and 14-3-3ζ; assay type: binding; conditions: for Kd: triplicates
T1 construct: Full-length expression and purification of 14-3-3; made in house; host or cells: E. coli BL21 (DE3)STAR
T1 sequence (P63104 1-245): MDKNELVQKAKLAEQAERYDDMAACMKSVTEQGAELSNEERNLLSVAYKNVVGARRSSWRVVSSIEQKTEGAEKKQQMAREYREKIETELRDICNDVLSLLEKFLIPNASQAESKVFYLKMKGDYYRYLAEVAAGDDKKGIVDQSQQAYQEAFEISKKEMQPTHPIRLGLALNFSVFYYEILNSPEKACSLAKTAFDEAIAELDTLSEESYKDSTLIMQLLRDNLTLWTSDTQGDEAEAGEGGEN
Outline: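 Fluorescence polarization (ex 485/em 520 nm) was read in triplicate after 30-min RT incubation. Binding data were fitted to a standard Hill equation and expressed in mP units. The dynamic range (ΔmP) is the difference between bound and free peptide signals.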

14-3-3σ = target: T2, 14-3-3σ (Homo sapiens, UniProt P31947); assay: FP assay with GR phosphorylated peptides and 14-3-3σ; assay type: binding; conditions: FITC-labeled peptide titrated with 14-3-3σ, 30 min RT, triplicates
T2 construct: Full-length expression and purification of 14-3-3; made in house; host or cells: E. coli BL21 (DE3)STAR
T2 sequence (P31947 1-248): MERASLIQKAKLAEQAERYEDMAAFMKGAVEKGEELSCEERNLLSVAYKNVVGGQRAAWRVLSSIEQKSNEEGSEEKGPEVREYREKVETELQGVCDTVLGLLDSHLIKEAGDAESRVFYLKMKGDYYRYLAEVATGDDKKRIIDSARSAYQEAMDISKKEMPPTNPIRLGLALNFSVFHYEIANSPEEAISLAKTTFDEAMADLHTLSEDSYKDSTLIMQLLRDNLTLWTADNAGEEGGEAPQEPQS
Protocol: After 30-min incubation at RT, the plates were read on a plate reader PHERAstar (BMG LABTECH GmbH) for FP signal using […] and standard excitation (485 nm) and emission (520 nm). Measurements were performed as triplicates. Binding data were fit to a standard Hill equation using the software Genedata Screener. The figures were made using the software GraphPad Prism 8. FP data were expressed as millipolarization (mP) units, and the dynamic range (ΔmP) was the difference of the signals from the bound peptide and free peptide. Errors are the standard error of the fit.

[3] = target: T3, human 14-3-3ζ, full length, 6His-Linker-h14-3-3 (human, UniProt P63104 1-245); assay: FP
T3 chain: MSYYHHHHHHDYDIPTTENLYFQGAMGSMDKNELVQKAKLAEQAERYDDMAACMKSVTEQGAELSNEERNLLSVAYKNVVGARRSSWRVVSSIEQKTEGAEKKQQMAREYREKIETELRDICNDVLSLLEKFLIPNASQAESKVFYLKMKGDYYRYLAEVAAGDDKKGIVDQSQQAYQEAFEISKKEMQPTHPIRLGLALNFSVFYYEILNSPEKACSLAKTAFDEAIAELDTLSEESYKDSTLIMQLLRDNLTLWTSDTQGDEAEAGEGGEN

[4] = target: T4, human 14-3-3σ, full length, 6His-Linker-h14-3-3 (human, UniProt P31947 1-248); assay: fluorescence polarisation; FITC-labelled peptide at 60 nM (monophosphorylated) or 10 nM (doubly phosphorylated) titrated with 14-3-3ζ or 14-3-3σ in dilution series from 300 μM or 150 μM; 30 min at RT; 384-well plate; Hill fit; triplicates; conditions: both partners purified
T4 construct: 14-3-3 protein sigma, human, cloned in pProEx Htb; also called σ isoform of human 14-3-3; source: E. coli BL21 (DE3)STAR, purified (Ni-NTA, SEC); not shown: His6 with linker [residues removed], N-terminal, kept
T4 sequence (looked up): T2 sequence (P31947 1-248)

[5] = target: T3, human 14-3-3ζ, full length, …; assay: SPR

## COC[C@@H]([C@H](O)[C@H](O)C(=O)NCC[C@H](C)c1nc(/C=C/C[C@@H]2O[C@]3(C[C@@H](O)[C@@H]2C)O[C@H]([C@H](C[C@H](O)[C@H](C)[C@H](O)[C@H](C)/C=C(C)/C(C)=C/C=C/C(C)=C\C#N)OC)[C@H](OP(=O)(O)O)C3(C)C)co1)N(C)C [calyculin A]
[1]
  GR interaction with 14-3-3 proteins upon stimulation: GR interacted with 14-3-3 proteins
[2]
  MINK1 interaction with 14-3-3 upon stimulation: MINK1 also interacts with 14-3-3

## CC[C@H](C)[C@H](NC(=O)[C@H](CCCCN)NC(=O)[C@H](CCCCN)NC(=O)[C@H](CCCCN)NC(=O)[C@@H](NC(=O)[C@H](CCCCN)NC(=O)[C@H](CCCNC(=N)N)NC(=O)[C@H](C)NC(=O)[C@H](CCC(=O)O)NC(=O)[C@H](CC(C)C)NC(=O)[C@@H](N)CC(N)=O)[C@@H](C)OP(=O)(O)O)C(=O)N[C@@H](CCCCN)C(=O)NCC(=O)O [GR_pT493] (H-NLEARK[pT]KKKIKG-OH; N-terminus assumed)
14-3-3ζ; FITC-labeled peptide 60 nM (monophosphorylated) or 10 nM (doubly phosphorylated) titrated with 14-3-3ζ, 30 min RT, Hill fit, read-out: Kd with 14-3-3ζ by FP
  Kd: > 150000 nM
14-3-3σ
  Kd: > 150 µM

## C=C[C@@]1(C)CC(=O)[C@]2(O)[C@@]3(C)[C@@H](O)CCC(C)(C)[C@@H]3[C@H](O)[C@H](OC(C)=O)[C@@]2(C)O1 [forskolin]
[1]
  GR interaction with 14-3-3 proteins upon stimulation: GR interacted with 14-3-3 proteins
[2]
  MINK1 interaction with 14-3-3 upon stimulation: MINK1 also interacts with 14-3-3

## CC[C@H](C)[C@H](NC(=O)[C@@H](NC(=O)[C@H](CCCCN)NC(C)=O)[C@@H](C)O)C(=O)N[C@H](C(=O)N1CCC[C@H]1C(=O)N[C@@H](C)C(=O)N[C@H](C(=O)N[C@@H](CC(C)C)C(=O)N1CCC[C@H]1C(=O)N[C@@H](CCC(N)=O)C(=O)N[C@@H](CC(C)C)C(=O)N[C@H](C(=O)N1CCC[C@H]1C(=O)NCC(=O)NCC(=O)NCC(=O)NCC(=O)NCC(=O)N[C@@H](CCCNC(=N)N)C(=O)N[C@@H](CO)C(=O)N[C@@H](Cc1ccc(O)cc1)C(=O)N[C@@H](CCCNC(=N)N)C(=O)N[C@@H](CCC(N)=O)C(=O)N[C@@H](CO)C(=O)N[C@@H](COP(=O)(O)O)C(=O)N[C@@H](C)C(=O)N[C@@H](CC(N)=O)C(=O)N[C@@H](CC(C)C)C(=O)N[C@@H](CC(C)C)C(=O)N[C@@H](CS)C(=O)N[C@@H](Cc1ccccc1)C(=O)O)[C@@H](C)O)[C@@H](C)OP(=O)(O)O)C(C)C [GR_pT524-pS617] (Ac-KTIVPA[pT]LPQLTPGGGGGRSYRQS[pS]ANLLCF-OH)
14-3-3ζ; FP, doubly phosphorylated 31-mer peptides, read-out: Kd with 14-3-3ζ (values in nM)
  Kd: 18 nM
14-3-3ζ; avidity effect of dimeric peptide
  fold improvement of binding affinity with 14-3-3ζ compared with the individual monomers: 1000 fold
14-3-3σ
  Kd: 0.053 ± 0.026 µM

B1: GR pS83, FITC-labelled 13-mer phosphopeptide (peptide, UniProt P04150 77-89, looked up)
peptide: {FITC}-DLSKAV[pS]LSMGLY
notes: glucocorticoid receptor (GR), human; 13-mer centred on S83; source: synthetic peptide
[3]
  Kd: 72 µM
[4]
  binding result: binds

## KTIVPATLPQLTP (also: phosphothreonine at T524, place in chain not given here) [GR_pT524, 13-mer phosphopeptide used for SPR and crystallography]
[5]
  Kd: 22 µM

## {FITC}-INEQRM[pT]LPCMYD (also: phosphothreonine at T635, place in chain not given here) [GR pT635, FITC-labelled 13-mer phosphopeptide]
[3]
  Kd: 55 µM

B2: GR_pT524, FITC-labelled 13-mer phosphopeptide (peptide, UniProt P04150 518-530, looked up)
peptide: {FITC′}-KTIVPA[pT]LPQLTP
modifications: also: phosphothreonine at 524 (T2, T7 or T12)
notes: glucocorticoid receptor (GR), human; 13-mer centred on T524; source: synthetic peptide
[4]
  binding result: binds

B3: GR_pS617, FITC-labelled 13-mer phosphopeptide (peptide, UniProt P04150 611-623, looked up)
peptide: {FITC′}-RSYRQS[pS]ANLLCF
modifications: also: phosphoserine at 617 (S6 or S7)
notes: glucocorticoid receptor (GR), human; 13-mer centred on S617; source: synthetic peptide
[3]
  Kd: 25 µM
[4]
  binding result: binds

## RSYRQS[pS]ANLLCF (not fully specified (N-terminus)) [GR_pS617, 13-mer phosphopeptide used for SPR and crystallography]
[5]
  Kd: 27 µM

B4: GR pT561, FITC-labelled 13-mer phosphopeptide (peptide, UniProt P04150 555-567, looked up)
peptide: {FITC}-STWRIM[pT]TLNMLG
notes: glucocorticoid receptor (GR), human; 13-mer centred on T561; source: synthetic peptide
[4]
  binding result: binds

## {FITC}-KTIVPATLPQLTP (also: phosphothreonine at T524, place in chain not given here)
[3]
  Kd: 38 µM
